B1: CD45RO ECD (domain or fragment)
chain: QSPTPSPTDAYLNASETTTLSPSGSAVISTTTIATTPSKPTCDEKYANITVDYLYNKETKLFTAKLNVNENVECGNNTCTNNEVHNLTECKNASVSISHNSCTAPDKTLILDVPPGVEKFQLHDCTQVEKADTTICLKWKNIETFTCDTQNITYRFQCGNMIFDNKEIKLENLEPEHEYKCDSEILYNNHKFTNASKIIKTDFGSPGEPQIIFCRSEAAHQGVITWNPPQRSFHNFTLCYIKETEKDCLNLDKNLIKYDLQNLKPYTKYVLSLHAYIIAKVQRNGSAAMCHFTTKSAPPSQVWNMTVSMTSDNSMHVKCRPPRDRNGPHERYHLEVEAGNTLVRNESHKNCDFRVKDLQYSTDYTFKAYFHNGDYPGEPFILHHSTSYNSK

Legend:
Assay in all cases: SPR
[1] = molecular target: HAdV-D53 E3/49K (human adenovirus D53)
[2] = molecular target: HAdV-D23 E3/49K (human adenovirus D23)
[3] = molecular target: T1, SLAMF1 ECD (human, UniProt Q13291 21-237)
T1 chain: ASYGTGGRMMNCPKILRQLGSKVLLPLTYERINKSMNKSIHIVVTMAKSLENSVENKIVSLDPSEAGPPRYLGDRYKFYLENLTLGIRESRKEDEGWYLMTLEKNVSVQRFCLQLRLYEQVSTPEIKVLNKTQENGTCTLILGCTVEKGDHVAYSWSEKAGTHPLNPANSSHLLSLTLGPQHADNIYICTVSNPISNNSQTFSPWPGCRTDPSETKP

[4] = molecular target: T2, SLAMF4 ECD (human, UniProt Q9BZW8 22-229)
T2 chain: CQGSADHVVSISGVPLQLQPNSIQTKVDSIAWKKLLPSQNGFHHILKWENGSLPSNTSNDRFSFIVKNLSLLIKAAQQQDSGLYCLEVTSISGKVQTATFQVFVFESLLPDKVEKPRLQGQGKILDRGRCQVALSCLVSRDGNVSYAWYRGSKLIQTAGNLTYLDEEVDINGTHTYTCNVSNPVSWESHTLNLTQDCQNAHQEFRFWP

[5] = molecular target: SLAMF8 ECD (human, UniProt Q9P0V8 23-233)
[6] = molecular target: T3, SLAMF7 ECD (human, UniProt Q9NQ25 23-226)
T3 chain: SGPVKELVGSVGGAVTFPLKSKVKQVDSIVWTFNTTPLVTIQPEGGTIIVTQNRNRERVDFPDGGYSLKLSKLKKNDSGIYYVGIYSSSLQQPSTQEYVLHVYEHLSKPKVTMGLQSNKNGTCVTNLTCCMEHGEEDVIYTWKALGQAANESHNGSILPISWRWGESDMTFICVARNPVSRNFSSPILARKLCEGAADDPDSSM

[7] = molecular target: T4, SLAMF3 ECD (human, UniProt Q9HBG7 48-454)
T4 chain: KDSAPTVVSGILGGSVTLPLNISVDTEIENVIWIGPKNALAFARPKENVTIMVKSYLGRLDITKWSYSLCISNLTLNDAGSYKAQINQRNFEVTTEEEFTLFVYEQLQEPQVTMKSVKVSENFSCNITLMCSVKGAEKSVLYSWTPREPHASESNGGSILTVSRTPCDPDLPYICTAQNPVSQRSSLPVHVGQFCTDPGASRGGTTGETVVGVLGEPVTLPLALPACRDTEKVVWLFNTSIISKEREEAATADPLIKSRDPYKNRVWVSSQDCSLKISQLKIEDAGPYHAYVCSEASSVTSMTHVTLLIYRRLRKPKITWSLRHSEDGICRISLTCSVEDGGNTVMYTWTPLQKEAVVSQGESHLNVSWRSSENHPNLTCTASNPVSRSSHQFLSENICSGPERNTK

[8] = molecular target: B1
[9] = molecular target: T5, SLAMF6 ECD (human, UniProt Q96DU3 22-226)
T5 chain: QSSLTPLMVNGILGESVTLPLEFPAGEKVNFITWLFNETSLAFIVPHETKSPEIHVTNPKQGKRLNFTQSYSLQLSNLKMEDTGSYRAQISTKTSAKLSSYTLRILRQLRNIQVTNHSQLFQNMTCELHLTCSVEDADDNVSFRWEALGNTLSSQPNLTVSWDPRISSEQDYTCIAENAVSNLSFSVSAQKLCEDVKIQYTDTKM

[10] = molecular target: T6, SLAMF5 ECD (human, UniProt Q9UIB8 22-225)
T6 chain: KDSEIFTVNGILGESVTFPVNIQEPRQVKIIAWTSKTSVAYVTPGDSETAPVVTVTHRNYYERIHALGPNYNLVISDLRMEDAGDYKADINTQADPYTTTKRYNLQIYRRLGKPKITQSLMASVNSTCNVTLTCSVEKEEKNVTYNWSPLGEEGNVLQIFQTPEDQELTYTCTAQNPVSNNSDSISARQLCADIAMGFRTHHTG

Chain of SLAMF8 ECD (Q9P0V8 23-233): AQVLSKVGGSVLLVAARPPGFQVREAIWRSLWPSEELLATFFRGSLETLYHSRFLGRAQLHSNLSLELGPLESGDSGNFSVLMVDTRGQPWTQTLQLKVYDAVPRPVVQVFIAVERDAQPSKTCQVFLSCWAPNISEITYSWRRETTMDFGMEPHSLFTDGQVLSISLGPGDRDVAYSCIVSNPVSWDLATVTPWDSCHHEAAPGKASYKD

B1 showed a Kd [1] of 0.21 nM and a Kd [2] of 0.18 nM.

B2: HAdV-B1 CR1γ (Fc fusion)
chain: RSHLTVPVGSTCTLQGPQEGYVTWWRIYDNGGFARPCDQPGTKFSCNGRDLTIINITSNEQGFYYGTNYKNSLDYNIIVVPATTSAPRKSTFSSSSAKASTIPKTASAMLKLPKIALSNSTAAPNTIPKST
Work on B2 yielded a Kd [3] of 215 nM, a Kd [4] of 280 nM and a Kd [5] of 60 nM. The Kd [6] was 1.5 nM and the Kd [7] was 86 nM.

B3: HAdV-D30 E3/49K (Fc fusion)
chain: ADPILVSVDWGKNLKLEGPKETPVEWWGGKNIQQLCVGNQTKHKELRHTCNMQNITLLSVNTSFNGDYFGFKNDNSGMKHYKVTVIPPKPTTRKPLPPPHYVNATMGQNLTLVGPANIPVTWLSEFGTLCEGKKILHEELNHTCNEQNLTLLFVNMTHNGPYFGFGKDNVDREQYEVSIISLFKVGAGQKKIDKGQRAEEKTKFNSGDLGRKQSRPKKKDIVDEVQVKSGNNQTLIGPPGKNVDWIKLSSGNDAVVTLCKGDTWIKHTCNGPNVTLINVTKPYEGSYYGSSDDGSSHYKVTVYDLYKSNKSKSKVKPYTTKGTTVNATNANGLKNALQQDGESENDQESKIPSAT
Work on B3 yielded a Kd [7] of 18 nM and a Kd [8] of 0.19 nM.

B4: HAdV-A18 CR1α (Fc fusion)
chain: LSPEEEPNCRPPLTNIKVVLSTTHVTLQCKFFSTQLTWTFNGKNVAEANLKYHINKENITLHSPIHLGYYRCFATPCVQAFFLAPVINPRPATTAQPEKITKLISTAIATTATKGTEEIIYFSNFTTNLLLNCSCSNSLISWFANNTFCKAFFQGTTLYSAKLELCNTSTPSNLTLLPPFVAGRYFCIGAGGHPCQRHWKLVFRPTLVLPTSADPTLSPTPNF
In the case of B4, the Kd [9] is reported as 631 nM, the Kd [6] is reported as 137 nM and the Kd [10] is reported as 2.1 nM.
